Reference: publication PMC1636458 (Nucleic Acids Research, 2006)
Read-outs that look alike come from different tables or passages of the source. Blank lines part the entries; values can stand above or below the binder they belong to.

Columns and labels:
[1] = biological target: T1, TBPm3 (altered specificity TATA-binding protein mutant) (UniProt P13393 1-240, I194F;V203T;L205V); assay: MPE-Fe
T1 sequence: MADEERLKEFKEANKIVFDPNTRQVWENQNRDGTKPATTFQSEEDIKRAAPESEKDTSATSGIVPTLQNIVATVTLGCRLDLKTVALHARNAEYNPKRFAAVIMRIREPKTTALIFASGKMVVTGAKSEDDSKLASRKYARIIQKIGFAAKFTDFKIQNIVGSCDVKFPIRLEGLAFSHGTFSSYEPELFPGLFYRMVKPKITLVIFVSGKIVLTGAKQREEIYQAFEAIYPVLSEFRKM

[2] = biological target: T1, TBPm3 (altered specificity TATA-binding …); assay: EMSA kinetics
[3] = biological target: T2, Brf1 (TFIIB-related factor, subunit of TFIIIB) (S. cerevisiae, UniProt P29056 1-596); assay: native gel or EMSA
T2 sequence (looked up): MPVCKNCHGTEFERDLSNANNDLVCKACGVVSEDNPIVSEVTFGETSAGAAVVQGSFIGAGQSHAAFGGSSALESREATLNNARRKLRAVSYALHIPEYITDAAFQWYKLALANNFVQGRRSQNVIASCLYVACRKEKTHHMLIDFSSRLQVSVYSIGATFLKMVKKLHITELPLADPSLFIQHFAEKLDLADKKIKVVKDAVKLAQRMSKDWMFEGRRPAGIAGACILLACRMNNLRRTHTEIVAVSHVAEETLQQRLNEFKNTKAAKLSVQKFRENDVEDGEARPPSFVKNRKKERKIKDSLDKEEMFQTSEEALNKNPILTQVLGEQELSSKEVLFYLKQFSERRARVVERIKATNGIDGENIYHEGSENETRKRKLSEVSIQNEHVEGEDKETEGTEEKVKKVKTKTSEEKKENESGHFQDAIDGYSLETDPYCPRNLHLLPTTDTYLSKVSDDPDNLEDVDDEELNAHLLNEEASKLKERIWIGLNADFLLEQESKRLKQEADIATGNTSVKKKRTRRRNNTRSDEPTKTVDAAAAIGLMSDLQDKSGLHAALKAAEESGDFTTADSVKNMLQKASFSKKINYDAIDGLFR

[4] = biological target: T1, TBPm3 (altered specificity TATA-binding …); assay: EMSA kinetics; remark: listed apart in the source

B1: 76 bp DNA with favored sequence TGTAAATTG (dsDNA)
DNA 1: CGCTGCAATCTCTTTTTCAATTGCTCCGGACTGTAAATTGGCGGTCCCTTACTCTTTCCTCAACAATTAACGGCCC
DNA 2: GGGCCGTTAATTGTTGAGGAAAGAGTAAGGGACCGCCAATTTACAGTCCGGAGCAATTGAAAAAGAGATTGCAGCG
binding result [1]: binds

B2: TGTA probe, 26 bp (dsDNA)
DNA 1: CGTGACTACTGTAAATAGATGATCCG
DNA 2: CGGATCATCTATTTACAGTAGTCACG
Kd [2]: 0.6 nM

binding result [3]: binds
B3: TBPm3 (altered specificity TATA-binding protein mutant) (natural protein, S. cerevisiae, UniProt P13393 1-240, looked up)
chain: MADEERLKEFKEANKIVFDPNTRQVWENQNRDGTKPATTFQSEEDIKRAAPESEKDTSATSGIVPTLQNIVATVTLGCRLDLKTVALHARNAEYNPKRFAAVIMRIREPKTTALIFASGKMVVTGAKSEDDSKLASRKYARIIQKIGFAAKFTDFKIQNIVGSCDVKFPIRLEGLAFSHGTFSSYEPELFPGLFYRMVKPKITLVIFVSGKIVLTGAKQREEIYQAFEAIYPVLSEFRKM

B4: TATA probe (U6 TATA box), 26 bp (dsDNA)
DNA 1: CGTGACTACTATAAATAGATGATCCG
DNA 2: CGGATCATCTATTTATAGTAGTCACG
Kd [4]: 0.3 nM
